In this experiment the target is Hsp90 (hsp82 gene from Saccharomyces cerevisiae) with a C-terminal coiled-coil domain (Saccharomyces cerevisiae).

Our source for the ATPase rate of Hsp90 with freely added Cdc37 and equimolar Ste11: Cdc37's reducing effect is abrogated values is article PMC10794413.

B1: free Cdc37 with the S14E phosphomimic (natural protein)
chain: MAIDYSKWDKIELEDDSDVEVHPNVDKKSFIKWKQQSIHEQRFKRNQDIKNLETQVDMYSHLNKRVDRILSNLPESSLTDLPAVTKFLNANFDKMEKSKGENVDPEIATYNEMVEDLFEQLAKDLDKEGKDSKSPSLIRDAILKHRAKIDSVTVEAKKKLDELYKEKNAHISSEDIHTGFDSSFMNKQKGGAKPLEATPSEALSSAAESNILNKLAKSSVPQTFIDFKDDPMKLAKETEEFGKISINEYSKSQKFLLEHLPIISEQQKDALMMKAFEYQLHGDDKMTLQVIHQSELMAYIKEIYDMKKIPYLNPMELSNVINMFFEKVIFNKDKPMGKESFLRSVQEKFLHIQKRSKILQQEEMDESNAEGVETIQLKSLDDSTELEVNLPDFNSKDPEEMKKVKVFKTLIPEKMQEAIMTKNLDNINKVFEDIPIEEAEKLLEVFNDIDIIGIKAILENEKDFQSLKDQYEQDHEDATMENLSLNDRDGGGDNHEEVKHTADTVD
Molecule B1 yielded an ATPase rate of Hsp90 with freely added Cdc37 and equimolar Ste11: Cdc37's reducing effect is abrogated of 1.1 ATP/min.
